Measured values reported in publication PMC6662615 (Biochemistry, 2019).

Target: the molecule itself
Experiment: dynamic light scattering

B1: recombinant human αB-crystallin (natural protein, UniProt P02511 1-175, looked up)
chain: MDIAIHHPWIRRPFFPFHSPSRLFDQFFGEHLLESDLFPTSTSLSPFYLRPPSFLRAPSWFDTGLSEMRLEKDRFSVNLDVKHFSPEELKVKVLGDVIEVHGKHEERQDEHGFISREFHRKYRIPADVDPLTITSSLSSDGVLTVNGPRKQVSGPERTIPITREEKPAVTAAPKK
**Q.** Does B1 bind?
**A.** Result: binds
